Results on two substances are retold here after publication PMC6155126.

The target in one assay is FLAG-Pol λ-WT (human) (UniProt Q9UGP5).
The target of the next assay is FLAG-PAXX (human) (UniProt Q9BUH6). As to the kind of experiment: affinity purification with mass spectrometry; anti-FLAG IP of FLAG-PAXX, -XLF, -XRCC4, -DNA-PKcs (stable) or FLAG-Pol λ (transient) from nucleoplasmic and benzonase-treated soluble chromatin fractions of HEK293F cells; FLAG peptide elution; LC-MS/MS.

FLAG-Pol λ-WT (human), sequence (Q9UGP5 whole entry): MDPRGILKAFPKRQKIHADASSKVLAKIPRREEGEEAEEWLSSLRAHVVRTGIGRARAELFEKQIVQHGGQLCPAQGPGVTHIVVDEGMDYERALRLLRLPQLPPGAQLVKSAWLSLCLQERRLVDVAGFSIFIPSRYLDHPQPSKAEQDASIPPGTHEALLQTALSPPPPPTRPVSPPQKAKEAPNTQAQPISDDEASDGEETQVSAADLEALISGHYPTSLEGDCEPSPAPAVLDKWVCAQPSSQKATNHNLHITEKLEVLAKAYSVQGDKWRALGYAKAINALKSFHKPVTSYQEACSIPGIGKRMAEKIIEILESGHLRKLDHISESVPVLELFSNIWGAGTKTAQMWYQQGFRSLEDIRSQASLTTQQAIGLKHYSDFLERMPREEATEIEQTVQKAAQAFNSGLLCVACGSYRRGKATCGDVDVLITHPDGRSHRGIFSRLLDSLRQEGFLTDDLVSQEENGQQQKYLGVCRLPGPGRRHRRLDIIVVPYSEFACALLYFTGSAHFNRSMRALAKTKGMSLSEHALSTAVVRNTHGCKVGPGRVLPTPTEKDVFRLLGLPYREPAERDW

“FLAG-PAXX (from UniProt Q9BUH6 1-204) (natural protein)”: the Pol λ-dependent gap filling synthesis on a 5nt-gapped dsDNA (33-mer), stimulation by added protein over a concentration series with FLAG-Pol λ-WT (human) was under 10 fold.

Substance “DNA-PK holoenzyme (endogenous) (from UniProt P78527 1-4128; P12956 1-609; P13010 1-732) (complex)” returned a stoichiometry N with FLAG-PAXX (human) of 1 to 1.5.

Usually stoichiometry N stands for a count of units in the complex or per binding partner.
